Reference: publication PMC3156093

Target: EcoRV restriction endonuclease (UniProt P04390 1-245)
Assay: competition

Chain of EcoRV restriction endonuclease (P04390 whole entry): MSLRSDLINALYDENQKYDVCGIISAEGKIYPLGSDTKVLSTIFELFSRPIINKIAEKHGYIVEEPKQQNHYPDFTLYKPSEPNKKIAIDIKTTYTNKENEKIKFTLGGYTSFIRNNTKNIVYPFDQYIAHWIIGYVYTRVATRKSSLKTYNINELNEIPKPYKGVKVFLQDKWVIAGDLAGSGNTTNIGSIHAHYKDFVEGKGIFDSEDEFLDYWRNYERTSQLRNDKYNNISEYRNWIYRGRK

B1: 30 bp specific site oligonucleotide (dsDNA)
DNA 1: CGGGCCTCTTGCGGGATATCGTCCATTCCG
DNA 2: CGGAATGGACGATATCCCGCAAGAGGCCCG
With B1 the binding signal was < 9 % N1 complex remaining at 30-fold excess competitor.
